# In IntAct's records for PubMed 31515488:
# B1: Four and a half LIM domains protein 5 (Homo sapiens), Q5TD97 (parent)
# chain: MTTAHFYCQYCTASLLGKKYVLKDDSPYCVTCYDRVFSNYCEECKKPIESDSKDLCYKDRHWHEGCFKCTKCNHSLVEKPFAAKDERLLCTECYSNECSSKCFHCKRTIMPGSRKMEFKGNYWHETCFVCENCRQPIGTKPLISKESGNYCVPCFEKEFAHYCNFCKKVITSGGITFCDQLWHKECFLCSGCRKDLCEEQFMSRDDYPFCVDCYNHLYANKCVACSKPISGLTGAKFICFQDSQWHSECFNCGKCSVSLVGKGFLTQNKEIFCQKCGSGMDTDI
# partner: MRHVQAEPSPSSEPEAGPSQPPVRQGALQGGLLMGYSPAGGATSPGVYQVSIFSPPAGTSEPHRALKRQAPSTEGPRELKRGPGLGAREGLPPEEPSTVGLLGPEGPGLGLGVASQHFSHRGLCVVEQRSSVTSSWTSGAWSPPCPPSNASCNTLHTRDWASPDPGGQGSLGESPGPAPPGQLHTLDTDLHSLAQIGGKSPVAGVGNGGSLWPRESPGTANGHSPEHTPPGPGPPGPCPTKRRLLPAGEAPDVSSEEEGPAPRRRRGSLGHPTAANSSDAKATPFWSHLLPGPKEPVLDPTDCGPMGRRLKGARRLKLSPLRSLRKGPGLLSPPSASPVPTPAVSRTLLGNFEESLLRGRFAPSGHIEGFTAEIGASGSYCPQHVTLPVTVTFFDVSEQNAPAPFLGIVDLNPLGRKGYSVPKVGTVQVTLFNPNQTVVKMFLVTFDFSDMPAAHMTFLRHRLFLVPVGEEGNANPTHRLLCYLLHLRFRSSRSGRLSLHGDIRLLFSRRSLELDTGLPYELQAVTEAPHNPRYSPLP
# B2: KH domain-containing, RNA-binding, signal transduction-associated protein 2 (Homo sapiens), Q5VWX1 (parent)
# chain: MEEEKYLPELMAEKDSLDPSFVHASRLLAEEIEKFQGSDGKKEDEEKKYLDVISNKNIKLSERVLIPVKQYPKFNFVGKLLGPRGNSLKRLQEETGAKMSILGKGSMRDKAKEEELRKSGEAKYAHLSDELHVLIEVFAPPGEAYSRMSHALEEIKKFLVPDYNDEIRQEQLRELSYLNGSEDSGRGRGIRGRGIRIAPTAPSRGRGGAIPPPPPPGRGVLTPRGSTVTRGALPVPPVARGVPTPRARGAPTVPGYRAPPPPAHEAYEEYGYDDGYGGEYDDQTYETYDNSYATQTQSVPEYYDYGHGVSEDAYDSYAPEEWATTRSSLKAPPQRSARGGYREHPYGRY
# partner: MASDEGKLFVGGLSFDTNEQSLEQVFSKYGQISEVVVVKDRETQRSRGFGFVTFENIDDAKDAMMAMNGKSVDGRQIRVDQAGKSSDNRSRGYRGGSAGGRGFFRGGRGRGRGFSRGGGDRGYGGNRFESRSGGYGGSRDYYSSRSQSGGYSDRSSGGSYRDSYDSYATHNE
# B3: Geminin (Homo sapiens), O75496 (parent)
# chain: MNPSMKQKQEEIKENIKNSSVPRRTLKMIQPSASGSLVGRENELSAGLSKRKHRNDHLTSTTSSPGVIVPESSENKNLGGVTQESFDLMIKENPSSQYWKEVAEKRRKALYEALKENEKLHKEIEQKDNEIARLKKENKELAEVAEHVQYMAELIERLNGEPLDNFESLDNQEFDSEEETVEDSLVEDSEIGTCAEGTVSSSTDAKPCI
# partner: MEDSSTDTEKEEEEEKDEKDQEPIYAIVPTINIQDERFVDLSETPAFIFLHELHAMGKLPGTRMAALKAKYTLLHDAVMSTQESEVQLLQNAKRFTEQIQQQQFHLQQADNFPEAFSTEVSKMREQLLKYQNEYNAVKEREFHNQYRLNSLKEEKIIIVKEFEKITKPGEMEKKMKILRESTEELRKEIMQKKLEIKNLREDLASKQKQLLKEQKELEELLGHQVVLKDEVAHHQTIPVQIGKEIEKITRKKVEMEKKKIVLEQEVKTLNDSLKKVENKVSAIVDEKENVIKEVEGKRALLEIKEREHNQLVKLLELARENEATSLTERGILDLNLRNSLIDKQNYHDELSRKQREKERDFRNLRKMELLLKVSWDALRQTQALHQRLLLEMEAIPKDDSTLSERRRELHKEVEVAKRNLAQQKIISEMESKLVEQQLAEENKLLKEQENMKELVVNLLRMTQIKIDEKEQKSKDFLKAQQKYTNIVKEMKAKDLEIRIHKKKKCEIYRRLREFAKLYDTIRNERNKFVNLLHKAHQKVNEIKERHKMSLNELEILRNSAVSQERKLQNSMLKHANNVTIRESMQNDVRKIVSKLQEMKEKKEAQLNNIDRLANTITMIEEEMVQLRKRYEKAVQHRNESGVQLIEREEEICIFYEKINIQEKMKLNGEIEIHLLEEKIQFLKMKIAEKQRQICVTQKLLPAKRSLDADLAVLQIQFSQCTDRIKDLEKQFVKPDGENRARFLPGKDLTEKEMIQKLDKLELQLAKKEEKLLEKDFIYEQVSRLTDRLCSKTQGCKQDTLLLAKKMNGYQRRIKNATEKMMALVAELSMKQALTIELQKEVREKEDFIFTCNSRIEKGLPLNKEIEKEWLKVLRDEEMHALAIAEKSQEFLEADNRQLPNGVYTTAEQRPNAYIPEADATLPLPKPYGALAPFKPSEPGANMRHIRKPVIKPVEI
# B4: Grancalcin (Homo sapiens), P28676 (parent)
# chain: MAYPGYGGGFGNFSIQVPGMQMGQPVPETGPAILLDGYSGPAYSDTYSSAGDSVYTYFSAVAGQDGEVDAEELQRCLTQSGINGTYSPFSLETCRIMIAMLDRDHTGKMGFNAFKELWAALNAWKENFMTVDQDGSGTVEHHELRQAIGLMGYRLSPQTLTTIVKRYSKNGRIFFDDYVACCVKLRALTDFFRKRDHLQQGSANFIYDDFLQGTMAI
# partner: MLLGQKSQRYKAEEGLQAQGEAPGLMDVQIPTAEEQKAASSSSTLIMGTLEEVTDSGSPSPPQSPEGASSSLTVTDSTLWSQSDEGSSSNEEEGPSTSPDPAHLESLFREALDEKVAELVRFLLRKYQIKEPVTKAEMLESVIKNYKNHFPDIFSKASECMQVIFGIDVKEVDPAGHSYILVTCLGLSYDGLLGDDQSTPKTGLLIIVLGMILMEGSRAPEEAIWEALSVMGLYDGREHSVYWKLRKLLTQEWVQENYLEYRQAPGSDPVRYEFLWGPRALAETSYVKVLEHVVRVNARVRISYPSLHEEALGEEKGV
# B5: PIH1 domain-containing protein 2 (Homo sapiens), Q8WWB5 (parent)
# chain: METSSKGLLTQVTQFWNLLDDLAQSDPEGYEKFIQQQLKEGKQLCAAPEPQLCLQTRILKPKEKILFINLCQWTRIPAPQSTTHPVPLTVGKPEDTTEISDAYTVIDVAYNPDVLHAAEKDQVKKNQLIQMAMKCIEEKFQFTLSHSYHITKFRIKGSIQRMKQNLMGIQTDSIDLREKMRRELTLGQIRSSTMSNPDHFPQLLLPKDQVSGKAVCLIEEISSTEIQVEMKMPAYELKIVHDHSEKPLKIELKVELPGINSVSLCDLSVSEDDLLIEVSEKYRLHLNLPKLIDTEMTTAKFIKEKSTLIITMPLV
# Variants of: B1
# Settings: with atosb_human ATOSB
row,Variant,effect of a mutation on the interaction
1,M202L,with no effect
2,D24Y,with no effect
3,R60W,with no effect

# Variants of: B2
# Settings: with cirbp_human CIRBP
row,Variant,effect of a mutation on the interaction
1,P333L,with no effect

# Variants of: B3
# Settings: with cc146_human CCDC146, Q8IYE0
row,Variant,effect of a mutation on the interaction
1,N15H,with no effect
2,E167D,with no effect

# Variants of: B4
# Settings: with maga8_human MAGEA8, P43361
row,Variant,effect of a mutation on the interaction
1,S80A,disrupting interaction strength
2,K115R,disrupting interaction strength

# Variants of: B5
# Settings: with cenpr_human ITGB3BP
row,Variant,effect of a mutation on the interaction
1,A102D,with no effect

# Variants of: B5
# Settings: with if2b3_human IGF2BP3, O00425
# Sequence of if2b3_human IGF2BP3, O00425 (O00425 whole entry): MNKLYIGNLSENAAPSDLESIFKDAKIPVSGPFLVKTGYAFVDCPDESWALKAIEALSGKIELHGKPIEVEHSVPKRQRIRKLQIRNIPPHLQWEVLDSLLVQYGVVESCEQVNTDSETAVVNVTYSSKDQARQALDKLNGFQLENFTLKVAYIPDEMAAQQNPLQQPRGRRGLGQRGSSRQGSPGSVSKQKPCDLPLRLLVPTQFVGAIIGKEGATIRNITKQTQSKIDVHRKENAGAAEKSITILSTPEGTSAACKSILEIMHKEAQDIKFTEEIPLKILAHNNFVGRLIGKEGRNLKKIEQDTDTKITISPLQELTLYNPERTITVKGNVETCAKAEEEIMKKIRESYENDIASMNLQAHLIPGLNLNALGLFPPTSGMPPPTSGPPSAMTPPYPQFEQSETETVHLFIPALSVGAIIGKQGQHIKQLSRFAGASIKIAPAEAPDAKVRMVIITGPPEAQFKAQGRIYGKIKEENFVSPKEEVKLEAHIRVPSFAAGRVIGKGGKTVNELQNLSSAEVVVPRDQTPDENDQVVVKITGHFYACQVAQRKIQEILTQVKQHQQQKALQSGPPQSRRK
row,Variant,effect of a mutation on the interaction
1,A102D,with no effect

# Variants of: B5
# Settings: with if4a2_human EIF4A2, Q14240
# Sequence of if4a2_human EIF4A2, Q14240 (Q14240 whole entry): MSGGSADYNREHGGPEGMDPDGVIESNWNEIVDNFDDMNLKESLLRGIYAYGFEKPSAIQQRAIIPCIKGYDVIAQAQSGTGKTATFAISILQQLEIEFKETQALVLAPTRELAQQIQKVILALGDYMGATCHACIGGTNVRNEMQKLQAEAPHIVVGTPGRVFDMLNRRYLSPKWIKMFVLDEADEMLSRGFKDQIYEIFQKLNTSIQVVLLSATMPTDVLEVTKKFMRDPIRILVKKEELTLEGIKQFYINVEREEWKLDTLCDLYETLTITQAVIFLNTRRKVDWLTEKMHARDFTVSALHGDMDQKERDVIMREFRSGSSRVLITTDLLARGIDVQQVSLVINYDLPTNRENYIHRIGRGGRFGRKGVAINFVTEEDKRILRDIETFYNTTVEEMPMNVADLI
row,Variant,effect of a mutation on the interaction
1,A102D,with no effect

# Variants of: B5
# Settings: with gfap_human GFAP
row,Variant,effect of a mutation on the interaction
1,A102D,with no effect
